Source: article PMC9604523, “Discovery of New Phenylacetone Monooxygenase Variants for the Development of Substituted Indigoids through Biocatalysis” (International Journal of Molecular Sciences, 2022)

Legend:
purified protein [1] = substrate: NC(=O)C1=CN([C@@H]2O[C@H](COP(=O)(O)OP(=O)(O)OC[C@H]3O[C@@H](n4cnc5c(N)ncnc54)[C@H](OP(=O)(O)O)[C@@H]3O)[C@@H](O)[C@H]2O)C=CC1; assay: purified protein; type: biochemical, Thermobifida fusca; settings: 50 mM phosphate pH 8.0, 1 µM enzyme, NADPH varied 5.0-500 µM, varied: cofactor
purified protein [2] = substrate: c1ccc2[nH]ccc2c1; assay: purified protein; type: biochemical, Thermobifida fusca; settings: 50 mM phosphate pH 8.0, 1 µM enzyme, indole varied 0.05-1 mM, NADPH fixed at saturating concentration
[3] = indole fixed at saturating concentration (wild type does not use indole; NADPH depletion control)
[4] = indole fixed at saturating concentration

B1: PAMO (phenylacetone monooxygenase; PAMOWT, PAMOHPCD, PAMOHPED) (Thermobifida fusca YX) (protein)
chain: MAGQTTVDSRRQPPEEVDVLVVGAGFSGLYALYRLRELGRSVHVIETAGDVGGVWYWNRYPGARCDIESIEYCYSFSEEVLQEWNWTERYASQPEILRYINFVADKFDLRSGITFHTTVTAAAFDEATNTWTVDTNHGDRIRARYLIMASGQLSVPQLPNFPGLKDFAGNLYHTGNWPHEPVDFSGQRVGVIGTGSSGIQVSPQIAKQAAELFVFQRTPHFAVPARNAPLDPEFLADLKKRYAEFREESRNTPGGTHRYQGPKSALEVSDEELVETLERYWQEGGPDILAAYRDILRDRDANERVAEFIRNKIRNTVRDPEVAERLVPKGYPFGTKRLILEIDYYEMFNRDNVHLVDTLSAPIETITPRGVRTSEREYELDSLVLATGFDALTGALFKIDIRGVGNVALKEKWAAGPRTYLGLSTAGFPNLFFIAGPGSPSALSNMLVSIEQHVEWVTDHIAYMFKNGLTRSEAVLEKEDEWVEHVNEIADETLYPMTASWYTGANVPGKPRVFMLYVGGFHRYRQICDEVAAKGYEGFVLT
Km (purified protein [1]; [3]): 0.9 µM
kcat (purified protein [1]; [3]): 4.8 s⁻¹
kcat/Km (purified protein [1]; [3]): 5.2e+06 M⁻¹ s⁻¹

B2: PAMO (phenylacetone monooxygenase; PAMOWT, PAMOHPCD, PAMOHPED) (Thermobifida fusca YX; A442P/L443E/P440F/P94D/Q93N/S441H/S444D) (protein)
chain: MAGQTTVDSRRQPPEEVDVLVVGAGFSGLYALYRLRELGRSVHVIETAGDVGGVWYWNRYPGARCDIESIEYCYSFSEEVLQEWNWTERYASNDEILRYINFVADKFDLRSGITFHTTVTAAAFDEATNTWTVDTNHGDRIRARYLIMASGQLSVPQLPNFPGLKDFAGNLYHTGNWPHEPVDFSGQRVGVIGTGSSGIQVSPQIAKQAAELFVFQRTPHFAVPARNAPLDPEFLADLKKRYAEFREESRNTPGGTHRYQGPKSALEVSDEELVETLERYWQEGGPDILAAYRDILRDRDANERVAEFIRNKIRNTVRDPEVAERLVPKGYPFGTKRLILEIDYYEMFNRDNVHLVDTLSAPIETITPRGVRTSEREYELDSLVLATGFDALTGALFKIDIRGVGNVALKEKWAAGPRTYLGLSTAGFPNLFFIAGPGSFHPEDNMLVSIEQHVEWVTDHIAYMFKNGLTRSEAVLEKEDEWVEHVNEIADETLYPMTASWYTGANVPGKPRVFMLYVGGFHRYRQICDEVAAKGYEGFVLT
Km (purified protein [1]; [4]): 4.4 µM
kcat (purified protein [1]; [4]): 1.9 s⁻¹
kcat/Km (purified protein [1]; [4]): 430000 M⁻¹ s⁻¹
Km (purified protein [2]): 109.0 µM
kcat (purified protein [2]): 1.7 s⁻¹
kcat/Km (purified protein [2]): 16000 M⁻¹ s⁻¹

B3: PAMO (phenylacetone monooxygenase; PAMOWT, PAMOHPCD, PAMOHPED) (Thermobifida fusca YX; A442P/L443C/P440F/P94D/Q93N/S441H/S444D) (protein)
chain: MAGQTTVDSRRQPPEEVDVLVVGAGFSGLYALYRLRELGRSVHVIETAGDVGGVWYWNRYPGARCDIESIEYCYSFSEEVLQEWNWTERYASNDEILRYINFVADKFDLRSGITFHTTVTAAAFDEATNTWTVDTNHGDRIRARYLIMASGQLSVPQLPNFPGLKDFAGNLYHTGNWPHEPVDFSGQRVGVIGTGSSGIQVSPQIAKQAAELFVFQRTPHFAVPARNAPLDPEFLADLKKRYAEFREESRNTPGGTHRYQGPKSALEVSDEELVETLERYWQEGGPDILAAYRDILRDRDANERVAEFIRNKIRNTVRDPEVAERLVPKGYPFGTKRLILEIDYYEMFNRDNVHLVDTLSAPIETITPRGVRTSEREYELDSLVLATGFDALTGALFKIDIRGVGNVALKEKWAAGPRTYLGLSTAGFPNLFFIAGPGSFHPCDNMLVSIEQHVEWVTDHIAYMFKNGLTRSEAVLEKEDEWVEHVNEIADETLYPMTASWYTGANVPGKPRVFMLYVGGFHRYRQICDEVAAKGYEGFVLT
Km (purified protein [1]; [4]): 7.6 µM
kcat (purified protein [1]; [4]): 6.8 s⁻¹
kcat/Km (purified protein [1]; [4]): 900000 M⁻¹ s⁻¹
Km (purified protein [2]): 58.2 µM
kcat (purified protein [2]): 5.4 s⁻¹
kcat/Km (purified protein [2]): 93000 M⁻¹ s⁻¹
